Test results from patent publication US20210347908A1 (ELPISCIENCE SUZHOU BIOPHARMA, published 2021).
Where two headings read alike, the source gives them in different places.

Columns and labels:
[1] = target: T1, full length C57BL/6 mouse SIRPα stably expressed on CHOK1 cells (mouse (C57BL/6), UniProt P97797 32-513); assay: FACS on CHOK1-C57BL/6 mouse SIRPα-2.22 cells
T1 construct: whole, on cells; also called CHOK1-C57BL/6 mouse SIRPα-2.22 cells
T1 sequence (looked up): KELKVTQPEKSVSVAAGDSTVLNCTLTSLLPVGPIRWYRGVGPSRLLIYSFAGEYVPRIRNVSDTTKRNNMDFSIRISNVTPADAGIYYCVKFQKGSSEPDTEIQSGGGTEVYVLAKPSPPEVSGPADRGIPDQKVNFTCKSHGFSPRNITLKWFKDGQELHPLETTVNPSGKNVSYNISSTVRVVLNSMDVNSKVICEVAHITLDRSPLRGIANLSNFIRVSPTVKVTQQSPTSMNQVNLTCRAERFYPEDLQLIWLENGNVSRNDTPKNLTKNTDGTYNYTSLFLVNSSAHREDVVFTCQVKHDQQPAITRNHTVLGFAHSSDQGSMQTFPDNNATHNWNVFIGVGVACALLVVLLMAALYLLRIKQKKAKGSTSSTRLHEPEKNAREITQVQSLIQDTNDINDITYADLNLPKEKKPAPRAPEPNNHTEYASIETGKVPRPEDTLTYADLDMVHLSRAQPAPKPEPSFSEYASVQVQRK
Protocol: Species cross reactivity of the purified hybridoma antibodies against human, cyno and mouse SIRPα was determined by FACS assay using CHOK1-human SIRPα v1-1B4 cells, CHOK1-cyno SIRPα-2A2 cells, and CHOK1-C57BL/6 mouse SIRPα-2.22 cells, which stably expressing SIRPα protein. Briefly the antibodies were incubated with 2×10⁵ target cells at 4° C. for 1 hour. After washing, fluorescence labeled anti-mouse or anti-human IgG 2nd antibody (Life Technologies) was added and incubated at 4° C. for 1 hour. Geometric median fluorescence intensity was detected and EC₅₀ was calculated. In particular, it is noted, in contrast to the other antibodies tested in the same experiment, 060 cannot bind with cyno SIRPα and 035 has cross reactivity against C57BL/6 mouse SIRPα.

[2] = target: T2, Fc tagged human SIRPγ ECD recombinant protein (human, UniProt Q9P1W8 29-360); assay: ELISA
T2 construct: range 1-360; cloned range includes the signal peptide; also called hSIRPγ; not shown: human IgG Fc region (hFc) of the pCPC vector
T2 sequence (Q9P1W8 29-360 limits assumed, form in doubt): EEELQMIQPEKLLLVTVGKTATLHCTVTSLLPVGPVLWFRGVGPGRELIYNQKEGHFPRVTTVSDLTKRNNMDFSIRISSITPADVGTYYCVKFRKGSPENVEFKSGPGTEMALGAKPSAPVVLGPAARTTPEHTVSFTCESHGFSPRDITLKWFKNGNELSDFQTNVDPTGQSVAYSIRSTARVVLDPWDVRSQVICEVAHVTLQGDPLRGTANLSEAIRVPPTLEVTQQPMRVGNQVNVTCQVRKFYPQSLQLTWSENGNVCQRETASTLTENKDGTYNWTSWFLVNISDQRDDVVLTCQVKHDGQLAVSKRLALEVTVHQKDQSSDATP
Summary of the method: (§1)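 Coated antigen + antibody, 37° C. 1 h; wash; HRP anti-mouse or anti-human IgG, 37° C. 1 h; TMB 15 min RT; stop 1N HCl; OD450; EC₅₀.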

[3] = target: T2, Fc tagged human SIRPγ ECD recombinant …; assay: ELISA; remark: listed apart in the source
Summary of the method: as §1

B1: chimeric antibody 035c (antibody, V domains shown)
VH: QIQLVQSGPELRKPGETVKISCKASGYSFTNYAMNWVKQAPGKVLKWMGFINTYTGEPTYADDFKGRFAFSLETSASTAYLQINNLKNEDTATYFCTRTRGYYDFDGGAFDYWGQGTSLTVSS
VL: DIVMTQSQKFMSTSIGDRVSVTCKASQNVGTHLAWYQQKPGQSPKALIFSASYRYIGVPDRFTGSGSGTDFTLTITNVQSEDLAEYFCQQYNTYPLTFGAGTKLELK
In the case of B1, the “EC50 (read off the curve)” value [1] is reported as about 0.3 µg/mL, the EC50 [2] is reported as 6.11 nM and the EC50 [3] is reported as 6.11 nM.
